Target: BIQ, fluorescent reporter containing an IQ domain sequence derived from neuromodulin (UniProt P17677)
Test: other fluorescence titration

Chain of BIQ, fluorescent reporter containing an IQ domain sequence derived from neuromodulin (P17677 31-60): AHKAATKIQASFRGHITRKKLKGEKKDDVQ

stoichiometry N: 1
Substance: calmodulin (native vertebrate CaM) (from UniProt P0DP23 1-149) (natural protein)
